The results in this text go back to paper PMC4005458, “Brassinosteroids control root epidermal cell fate via direct regulation of a MYB-bHLH-WD40 complex by GSK3-like kinases” (eLife, 2014).

B1: His-fused BIN2 (enzyme, Arabidopsis, UniProt Q39011 1-380, looked up)
chain: MADDKEMPAAVVDGHDQVTGHIISTTIGGKNGEPKQTISYMAERVVGTGSFGIVFQAKCLETGETVAIKKVLQDRRYKNRELQLMRVMDHPNVVCLKHCFFSTTSKDELFLNLVMEYVPESLYRVLKHYSSANQRMPLVYVKLYMYQIFRGLAYIHNVAGVCHRDLKPQNLLVDPLTHQVKICDFGSAKQLVKGEANISYICSRFYRAPELIFGATEYTTSIDIWSAGCVLAELLLGQPLFPGENAVDQLVEIIKVLGTPTREEIRCMNPHYTDFRFPQIKAHPWHKIFHKRMPPEAIDFASRLLQYSPSLRCTALEACAHPFFDELREPNARLPNGRPFPPLFNFKQEVAGSSPELVNKLIPDHIKRQLGLSFLNQSGT
notes: BIN2 (BRASSINOSTEROID … 2), GSK3-like kinase of Arabidopsis, cloned into the PET28a vector; Primers are in Supplementary file 1; also called BIN2-His; source: E. coli BL21 (DE3) pLySs, purified (Ni-NTA agarose)

For one experiment, the target named is T1, GST-fused EGL3 (Arabidopsis, UniProt Q9CAD0 1-596).
T1 construct: also called EGL3-GST; source: E. coli BL21 (DE3) pLySs, purified (glutathione resin)
T1 sequence (looked up): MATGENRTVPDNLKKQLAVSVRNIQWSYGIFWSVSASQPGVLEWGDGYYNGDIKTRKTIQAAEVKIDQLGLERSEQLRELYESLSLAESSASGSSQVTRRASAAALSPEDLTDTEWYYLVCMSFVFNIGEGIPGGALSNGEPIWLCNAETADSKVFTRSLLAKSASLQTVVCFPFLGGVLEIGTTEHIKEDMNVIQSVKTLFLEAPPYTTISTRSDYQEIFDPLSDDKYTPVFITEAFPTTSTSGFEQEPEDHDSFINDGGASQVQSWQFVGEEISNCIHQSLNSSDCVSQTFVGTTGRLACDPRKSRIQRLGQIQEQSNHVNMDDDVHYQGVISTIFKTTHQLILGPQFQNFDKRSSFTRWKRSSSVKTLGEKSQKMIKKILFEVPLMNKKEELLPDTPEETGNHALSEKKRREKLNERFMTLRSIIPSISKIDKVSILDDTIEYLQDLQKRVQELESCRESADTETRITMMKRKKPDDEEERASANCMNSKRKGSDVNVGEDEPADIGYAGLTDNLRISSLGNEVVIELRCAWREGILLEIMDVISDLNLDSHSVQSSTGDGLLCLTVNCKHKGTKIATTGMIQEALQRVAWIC
Put plainly: pull-down; GST fusions bound to GST resin, BIN2-His added, 2 hr at 4°C; 10 mM phosphate buffer pH 7.4, 140 mM NaCl, 3 mM KCl, 0.1% Triton X-100; immunoblot with anti-His antibody. Particulars: both partners purified. (In western blotting, separated proteins are transferred to a membrane and probed.)

In the experiment “His-fused BIN2” the target is B1. The experiment is described as above. Particulars: both partners purified.

In the case of B1, the binding result in the experiment with GST-fused EGL3 was “binds”.

B2: TRANSPARENT TESTA GLABRA1 (TTG1) fused to GST (natural protein, Arabidopsis, UniProt Q9XGN1 1-341, looked up)
chain: MDNSAPDSLSRSETAVTYDSPYPLYAMAFSSLRSSSGHRIAVGSFLEDYNNRIDILSFDSDSMTVKPLPNLSFEHPYPPTKLMFSPPSLRRPSSGDLLASSGDFLRLWEINEDSSTVEPISVLNNSKTSEFCAPLTSFDWNDVEPKRLGTCSIDTTCTIWDIEKSVVETQLIAHDKEVHDIAWGEARVFASVSADGSVRIFDLRDKEHSTIIYESPQPDTPLLRLAWNKQDLRYMATILMDSNKVVILDIRSPTMPVAELERHQASVNAIAWAPQSCKHICSGGDDTQALIWELPTVAGPNGIDPMSVYSAGSEINQLQWSSSQPDWIGIAFANKMQLLRV
notes: TTG1 (TRANSPARENT TESTA GLABRA1), WD40 repeat protein of Arabidopsis; The methods describe the cloning of only EGL3 into pGEX4T-1; the making of TTG1-GST is not described; also called TTG1-GST; source: recombinant, purified
Turning to B2, in the experiment with His-fused BIN2, the binding result is reported as “binds”.

B3: WEREWOLF (WER) fused to GST (natural protein, Arabidopsis, UniProt Q9SEI0 1-203, looked up)
chain: MRKKVSSSGDEGNNEYKKGLWTVEEDKILMDYVKAHGKGHWNRIAKKTGLKRCGKSCRLRWMNYLSPNVKRGNFTEQEEDLIIRLHKLLGNRWSLIAKRVPGRTDNQVKNYWNTHLSKKLGIKDQKTKQSNGDIVYQINLPNPTETSEETKISNIVDNNNILGDEIQEDHQGSNYLSSLWVHEDEFELSTLTNMMDFIDGHCF
notes: WER (WEREWOLF), R2R3 MYB-domain transcription factor of Arabidopsis; The methods describe the cloning of only EGL3 into pGEX4T-1; the making of WER-GST is not described; also called WER-GST; source: recombinant, purified
B3: the binding result with His-fused BIN2 is given as “binds”.
